B1: neuron-derived neurotrophic factor (NENF) [human (endogenous in NTera2 and in fibroblasts)] / DJ-1 WT fused with FLAG [human] (parent complex)
chain 1: GQTPRPAERGPPVRLFTEEELARYGGEEEDQPIYLAVKGVVFDVTSGKEFYGRGAPYNALTGKDSTRGVAKMSLDPADLTHDTTGLTAKELEALDEVFTKVYKAKYPIVGYTARRILNEDGSPNLDFKPEDQPHFDIKDEF
chain 2: MASKRALVILAKGAEEMETVIPVDVMRRAGIKVTVAGLAGKDPVQCSRDVVICPDASLEDAKKEGPYDVVVLPGGNLGAQNLSESAAVKEILKEQENRKGLIAAICAGPTALLAHEIGFGSKVTTHPLAKDKMMNGGHYTYSENRVEKDGLILTSRGPGTSFEFALAIVEALNGKEVAAQVKAPLVLKD

This test covers variants of B1. The experiment in a line: co-immunoprecipitation (anti-FLAG IP, immunoblot with anti-NENF), band intensity; DJ-1 KO DNLCs; NENF band relative to FLAG (LC). Background: In western blotting, separated proteins are transferred to a membrane and probed.
Turning to chain 2 V51A, the percent of parent worked out at 45%.
For chain 2 C53A the value was 23%; for chain 2 H126A, 73%.
The figure for chain 2 E163K is 0%.

For the origin of these results see publication PMC6831851 (2019).
